The experiment has as its target TEMPOL-122-αS (N122C α-synuclein spin-labelled at position 122) (UniProt P37840). Description: CW-EPR titration (site-directed spin labelling); apparent; TEMPOL-122-αS kept at 50 μM, poly-cation titrated at increasing molar ratios; LLPS buffer without crowder (no PEG); 25 °C; band III/band II amplitude fitted to an approximate model with n identical and independent binding sites.

On to poly-L-lysine of 100 residues (peptide), for which the Kd is 5 µM.

Source of the values: PMC9357037.
